Assay results from publication PMC11173125.

Target: Nsp9 (SARS-CoV-2, UniProt P0DTD1 4141-4253)
Assay: EMSA
Settings: protein: recombinant; tags: C-terminal […]; (pET21b); chain copies: 2; label: 5' biotin; single strand

TTTTTTTTTTTTTTTTTTTTTTTTTTTTTTTTTTTTTTTTTTTTT (ssDNA) [dT45]
apparent K (half saturation): 33.5 ± 2.5 µM
